T1: hLGR5_(ecto)–mRspo2_(Fu1-Fu2) complex, formed beforehand by coexpression (human | mouse, UniProt O75473 32-487; Q8BFU0 39-144)
T1 construct: as the chain of m1: vector residues; as the chain of m1: human LGR5 ectodomain, R32 up to the residue before the replaced loop A488-H537; printed ends RGCPTH...FGVCEN; as the chain of m1: linker that replaces A488-H537; as the chain of m1: human LGR5 after the replaced loop; as the chain of m1: vector residues before the His10 tag; as the chain of m2: vector residues; as the chain of m2: mouse …
T1 chain 1: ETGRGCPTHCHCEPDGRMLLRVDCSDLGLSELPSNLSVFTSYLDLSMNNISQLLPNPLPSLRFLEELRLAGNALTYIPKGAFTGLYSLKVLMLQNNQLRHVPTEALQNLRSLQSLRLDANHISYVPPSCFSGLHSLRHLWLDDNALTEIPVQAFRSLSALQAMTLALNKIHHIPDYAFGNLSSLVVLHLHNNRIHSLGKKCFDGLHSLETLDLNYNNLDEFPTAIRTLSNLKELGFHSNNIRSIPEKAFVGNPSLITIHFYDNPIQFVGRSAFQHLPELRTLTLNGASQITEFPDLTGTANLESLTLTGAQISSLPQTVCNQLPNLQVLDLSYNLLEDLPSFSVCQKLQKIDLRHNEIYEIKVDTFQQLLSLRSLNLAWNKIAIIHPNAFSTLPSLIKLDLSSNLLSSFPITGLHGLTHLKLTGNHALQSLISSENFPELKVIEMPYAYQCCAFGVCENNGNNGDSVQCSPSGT
T1 chain 2: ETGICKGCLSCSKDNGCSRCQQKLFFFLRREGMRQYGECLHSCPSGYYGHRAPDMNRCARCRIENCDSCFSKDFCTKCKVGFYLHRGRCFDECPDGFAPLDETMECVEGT

B1: human LGR5 ectodomain variant (hLGR5_(ecto)), R32-S543 with the loop A488-H537 replaced by an NGNNGD linker (domain or fragment)
chain: T1 chain 1
notes: residues left by the vector pHLsec after removal of the signal peptide; human LGR5 ectodomain, R32 up to the residue before the replaced loop A488-H537; printed ends RGCPTH...FGVCEN; linker that replaces A488-H537; human LGR5 after the replaced loop; vector residues before the His10 tag; Cloned into pHLsec H10; not shown: His10, C-terminal, kept
B2: mouse ZNRF3 ectodomain (mZNRF3_(ecto)) (domain or fragment, UniProt Q5SSZ7 53-216, looked up)
chain: KETAFVEVVLFESSPSGDYTTHTTGLTGRFSRAGAMLSAEGEIVQMHPLGLCNNNDEEDLYEYGWVGVVKLEQPELDPKPCLTVLGKAKRAVQRGATAVIFDVSENPEAIDQLNQGSEDPLKRPVVYVKGADAIKLMNIVNKQKVARARIQHLPPRQPTEYFDM
notes: mouse ZNRF3 ectodomain; chain C of PDB 4C99 was the search model; source: produced as described (Zebisch et al., 2013); large scale mammalian expression, purified
B3: mouse R-spondin 2 Furin tandem repeat fragment (mRspo2_(Fu1-Fu2), I39-G144) (domain or fragment)
chain: T1 chain 2
notes: residues left by the vector after removal of the signal peptide; mouse R-spondin 2, Fu1-Fu2, I39-G144; printed ends ICKGCL...MECVEG; vector residue before the His10 tag; not shown: His10, C-terminal, kept

Legend:
[1] = biological target: B3; assay: crystal structure; hLGR5_(ecto)–mRspo2_(Fu1-Fu2) complex from coexpression, 5.9 mg/ml; sitting drop; 25% (w/v) PEG 3350, 200 mM lithium sulphate, 100 mM bis-Tris pH 5.5; 2.2 Å; two copies of the complex in the asymmetric unit; details: both partners purified
[2] = biological target: the molecule itself; assay: as above
[3] = biological target: the molecule itself; assay: crystal structure; approximately stoichiometric amounts of the hLGR5_(ecto)–mRspo2_(Fu1-Fu2) complex and mZNRF3_(ecto) mixed in 10 mM Tris/HCl pH 9.0, 1000 mM NaCl, 1.3 mg/ml; crystals in 100 mM ammonium acetate, 600 mM NaCl, 50 mM MES pH 6.0, 5 mM MgSO4; 4.8 Å, anisotropic; 2:2:2 complex generated by crystallographic symmetry
[4] = biological target: T1, hLGR5_(ecto)–mRspo2_(Fu1-Fu2) complex, …; assay: as above; details: both partners purified
[5] = biological target: B1; assay: crystal structure; hLGR5_(ecto)–mRspo2_(Fu1-Fu2) complex from coexpression, 5.9 mg/ml; sitting drop; 25% (w/v) PEG 3350, 200 mM lithium sulphate, 100 mM bis-Tris pH 5.5; 2.2 Å; two copies of the complex in the asymmetric unit; details: both partners purified

Binder: B1
binding result [1]: binds
stoichiometry N [2]: 2

Binder: B2
stoichiometry N [3]: 2
stoichiometry N [4]: 1

Binder: B3
stoichiometry N [5]: 1

Reference: paper PMC4533229 (Journal of Structural Biology, 2015)
